Measurements as given in article PMC9942802.

Target: tube protein gp14 (cyanophage Pam3)
Assay: cryo-EM structure

For tube protein gp14 (natural protein), the stoichiometry N was 6.
